Measurements taken from paper PMC2064081.

Target: MIM/IMD-L (IRSp53/MIM domain of mouse missing-in-metastasis, longer splice variant) (mouse) (UniProt Q8R1S4)
Experiment: SPR

Chain of MIM/IMD-L (IRSp53/MIM domain of mouse missing-in-metastasis, longer splice variant) (mouse) (Q8R1S4 1-250, change not shown): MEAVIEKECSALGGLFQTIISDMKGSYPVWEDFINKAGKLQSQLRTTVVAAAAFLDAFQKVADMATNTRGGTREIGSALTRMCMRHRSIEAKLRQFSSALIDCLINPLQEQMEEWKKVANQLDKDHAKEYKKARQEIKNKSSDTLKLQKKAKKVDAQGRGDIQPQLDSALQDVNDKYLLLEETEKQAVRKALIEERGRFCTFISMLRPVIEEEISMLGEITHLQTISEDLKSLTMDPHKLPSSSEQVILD

Question: For “GST-Rac (V12), dominant-active Rac (from UniProt P63000 1-192) (natural protein)”, which equilibrium binding level relative to MIM/IMD-S is on record?
Answer: 10 to 15%
